# Laboratory results published in patent US20150344570A1 (published 2015).
# B1: GpH7-A5/GpH7-B3 variant Q295_13S/GpL16-k0 (antibody, human IgG1, kappa)
# heavy 1: not shown
# heavy 2: not shown
# light: DIVMTQSPLSLPVTPGEPASISCQASESLVHSNRNTYLHWYLQKPGQSPQLLIYKVSNRFSGVPDRFSGSGSGTDFTLKISRVEAEDVGVYYCSQNTHVPPTFGQGTKVEIERTVAAPSVFIFPPSDEQLKSGTASVVCLLNNFYPREAKVQWKVDNALQSGNSQESVTEQDSKDSTYSLSSTLTLSKADYEKHKVYACEVTHQGLSSPVTKSFNRGEC
# notes: heterodimerized IgG1, mutation in one H chain; also called He Ab
# B2: GpH7-A5/GpH7-B3 variant P271_20W/GpL16-k0 (antibody, human IgG1, kappa)
# heavy 1: not shown
# heavy 2: not shown
# light: B1 light
# notes: as for B1
# B3: GpH7-A5/GpH7-B3 variant P271_04F/GpL16-k0 (antibody, human IgG1, kappa)
# heavy 1: not shown
# heavy 2: not shown
# light: B1 light
# notes: as for B1
# B4: GpH7-A5/GpH7-B3 variant Q295_05P/GpL16-k0 (antibody, human IgG1, kappa)
# heavy 1: not shown
# heavy 2: not shown
# light: B1 light
# notes: as for B1
# B5: GpH7-A5/GpH7-B3 variant S267_09D/GpL16-k0 (antibody, human IgG1, kappa)
# heavy 1: not shown
# heavy 2: not shown
# light: B1 light
# notes: as for B1
# B6: GpH7-A5/GpH7-B3 variant S298_16H/GpL16-k0 (antibody, human IgG1, kappa)
# heavy 1: not shown
# heavy 2: not shown
# light: B1 light
# notes: as for B1
# B7: GpH7-A5/GpH7-B3 variant S267_01G/GpL16-k0 (antibody, human IgG1, kappa)
# heavy 1: not shown
# heavy 2: not shown
# light: B1 light
# notes: as for B1
# B8: GpH7-A5/GpH7-B3 variant Q295_02A/GpL16-k0 (antibody, human IgG1, kappa)
# heavy 1: not shown
# heavy 2: not shown
# light: B1 light
# notes: as for B1
# B9: GpH7-A5/GpH7-B3 variant S298_14T/GpL16-k0 (antibody, human IgG1, kappa)
# heavy 1: not shown
# heavy 2: not shown
# light: B1 light
# notes: as for B1
# B10: GpH7-A5/GpH7-B3 variant K334_10E/GpL16-k0 (antibody, human IgG1, kappa)
# heavy 1: not shown
# heavy 2: not shown
# light: B1 light
# notes: as for B1
# B11: GpH7-A5/GpH7-B3 variant P271_03V/GpL16-k0 (antibody, human IgG1, kappa)
# heavy 1: not shown
# heavy 2: not shown
# light: B1 light
# notes: as for B1
# B12: GpH7-A5/GpH7-B3 variant S337_03V/GpL16-k0 (antibody, human IgG1, kappa)
# heavy 1: not shown
# heavy 2: not shown
# light: B1 light
# notes: as for B1
# B13: GpH7-A5/GpH7-B3 variant S239_09D/GpL16-k0 (antibody, human IgG1, kappa)
# heavy 1: not shown
# heavy 2: not shown
# light: B1 light
# notes: as for B1
# B14: GpH7-A5/GpH7-B3 variant K326_16H/GpL16-k0 (antibody, human IgG1, kappa)
# heavy 1: not shown
# heavy 2: not shown
# light: B1 light
# notes: as for B1
# B15: GpH7-A5/GpH7-B3 variant S298_07I/GpL16-k0 (antibody, human IgG1, kappa)
# heavy 1: not shown
# heavy 2: not shown
# light: B1 light
# notes: as for B1
# B16: GpH7-A5/GpH7-B3 variant S298_15Y/GpL16-k0 (antibody, human IgG1, kappa)
# heavy 1: not shown
# heavy 2: not shown
# light: B1 light
# notes: as for B1
# B17: GpH7-A5/GpH7-B3 variant S324_14T/GpL16-k0 (antibody, human IgG1, kappa)
# heavy 1: not shown
# heavy 2: not shown
# light: B1 light
# notes: as for B1
# B18: GpH7-A5/GpH7-B3 variant S324_02A/GpL16-k0 (antibody, human IgG1, kappa)
# heavy 1: not shown
# heavy 2: not shown
# light: B1 light
# notes: as for B1
# B19: GpH7-A5/GpH7-B3 variant S298_19Q/GpL16-k0 (antibody, human IgG1, kappa)
# heavy 1: not shown
# heavy 2: not shown
# light: B1 light
# notes: as for B1
# B20: GpH7-A5/GpH7-B3 variant Q295_03V/GpL16-k0 (antibody, human IgG1, kappa)
# heavy 1: not shown
# heavy 2: not shown
# light: B1 light
# notes: as for B1
# B21: GpH7-A5/GpH7-B3 variant P271_11K/GpL16-k0 (antibody, human IgG1, kappa)
# heavy 1: not shown
# heavy 2: not shown
# light: B1 light
# notes: as for B1
# B22: GpH7-A5/GpH7-B3 variant Q295_14T/GpL16-k0 (antibody, human IgG1, kappa)
# heavy 1: not shown
# heavy 2: not shown
# light: B1 light
# notes: as for B1
# B23: GpH7-A5/GpH7-B3 variant P271_06M/GpL16-k0 (antibody, human IgG1, kappa)
# heavy 1: not shown
# heavy 2: not shown
# light: B1 light
# notes: as for B1
# B24: GpH7-A5/GpH7-B3 variant S267_02A/GpL16-k0 (antibody, human IgG1, kappa)
# heavy 1: not shown
# heavy 2: not shown
# light: B1 light
# notes: as for B1
# B25: GpH7-A5/GpH7-B3 variant S324_08L/GpL16-k0 (antibody, human IgG1, kappa)
# heavy 1: not shown
# heavy 2: not shown
# light: B1 light
# notes: as for B1
# B26: GpH7-A5/GpH7-B3 variant P271_07I/GpL16-k0 (antibody, human IgG1, kappa)
# heavy 1: not shown
# heavy 2: not shown
# light: B1 light
# notes: as for B1
# B27: GpH7-A5/GpH7-B3 variant S298_08L/GpL16-k0 (antibody, human IgG1, kappa)
# heavy 1: not shown
# heavy 2: not shown
# light: B1 light
# notes: as for B1
# Biological target: T1, FcγRIa (human, UniProt P12314 16-292)
# T1 construct: extracellular domain; soluble extracellular domain with C-terminal His tag, expressed in FreeStyle293 cells; also called FcgRI; FcgRIa
# T1 sequence (P12314 16-292): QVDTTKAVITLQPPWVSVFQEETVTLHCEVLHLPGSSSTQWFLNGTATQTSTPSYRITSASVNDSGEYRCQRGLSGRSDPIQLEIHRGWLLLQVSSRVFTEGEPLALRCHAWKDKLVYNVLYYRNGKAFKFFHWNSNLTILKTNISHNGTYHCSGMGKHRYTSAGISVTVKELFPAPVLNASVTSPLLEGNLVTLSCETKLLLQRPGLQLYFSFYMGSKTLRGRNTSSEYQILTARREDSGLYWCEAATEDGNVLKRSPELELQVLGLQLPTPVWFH
# Assay: SPR (Biacore), captured antibody, FcγRIa analyte; relative to HeCon Ab GpH7-A5/GpH7-B3/GpL16-k0 = 100
row,He/Con_1a,Binder
1,102 % of control,B1
2,103 % of control,B2
3,102 % of control,B3
4,103 % of control,B4
5,110 % of control,B5
6,109 % of control,B6
7,103 % of control,B7
8,104 % of control,B8
9,107 % of control,B9
10,110 % of control,B10
11,102 % of control,B11
12,107 % of control,B12
13,101 % of control,B13
14,103 % of control,B14
15,107 % of control,B15
16,107 % of control,B16
17,121 % of control,B17
18,103 % of control,B18
19,109 % of control,B19
20,104 % of control,B20
21,103 % of control,B21
22,103 % of control,B22
23,102 % of control,B23
24,109 % of control,B24
25,103 % of control,B25
26,102 % of control,B26
27,107 % of control,B27
